In publication PMC3978657, “Early Steps in Autophagy Depend on Direct Phosphorylation of Atg9 by the Atg1 Kinase” (Molecular Cell, 2014):
Residue numbers refer to the chain shown, from its start.

T1: soluble Atg1 (Atg1 complex purified from yeast, released from the beads by TEV protease cleavage) (S. cerevisiae, UniProt P53104 1-897)
T1 construct: Atg1 serine-threonine kinase, S. cerevisiae; only Atg1 was detected (anti-Atg1 blot) in the pull-down; also called soluble Atg1 kinase; soluble Atg1 complex
T1 sequence (looked up): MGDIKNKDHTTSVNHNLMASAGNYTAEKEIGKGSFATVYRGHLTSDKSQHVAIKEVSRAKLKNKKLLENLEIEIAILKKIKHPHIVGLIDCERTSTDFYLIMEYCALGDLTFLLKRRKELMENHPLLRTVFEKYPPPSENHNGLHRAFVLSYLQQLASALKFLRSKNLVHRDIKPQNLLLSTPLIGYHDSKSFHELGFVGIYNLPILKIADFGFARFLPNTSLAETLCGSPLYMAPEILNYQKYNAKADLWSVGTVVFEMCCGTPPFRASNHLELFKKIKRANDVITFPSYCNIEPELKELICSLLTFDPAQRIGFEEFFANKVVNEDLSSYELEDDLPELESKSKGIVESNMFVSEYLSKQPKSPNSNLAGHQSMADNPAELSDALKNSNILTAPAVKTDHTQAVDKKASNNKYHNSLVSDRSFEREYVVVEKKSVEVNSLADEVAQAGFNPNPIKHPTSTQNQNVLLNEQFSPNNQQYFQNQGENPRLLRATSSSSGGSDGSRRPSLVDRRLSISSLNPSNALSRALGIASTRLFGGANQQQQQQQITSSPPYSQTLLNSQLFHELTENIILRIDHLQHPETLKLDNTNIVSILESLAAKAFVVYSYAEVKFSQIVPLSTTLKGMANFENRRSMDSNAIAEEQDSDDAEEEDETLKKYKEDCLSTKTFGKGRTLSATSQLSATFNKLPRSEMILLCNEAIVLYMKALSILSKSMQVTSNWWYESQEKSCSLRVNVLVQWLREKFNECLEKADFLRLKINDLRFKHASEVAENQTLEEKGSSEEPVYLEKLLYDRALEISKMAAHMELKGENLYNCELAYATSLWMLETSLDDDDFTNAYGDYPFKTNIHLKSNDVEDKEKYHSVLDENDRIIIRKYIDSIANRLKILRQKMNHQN

B1: GST-Atg9^757–997 wild-type (domain or fragment, S. cerevisiae, UniProt Q12142 757-997, looked up)
chain: RENSEYVDGLGYVCKYAMFNMKNIDGEDTHSMDEDSLTKKIAVNGSHTLNSKRRSKFTAEDHSDKDLANNKMLQSYVYFMDDYSNSENLTGKYQLPAKKGYPNNEGDSFLNNKYSWRKQFQPGQKPELFRIGKHALGPGHNISPAIYSTRNPGKNWDNNNNGDDIKNGTNNATAKNDDNNGNNDHEYVLTESFLDSGAFPNHDVIDHNKMLNSNYNGNGILNKGGVLGLVKEYYKKSDVGR
notes: Atg9, S. cerevisiae, C-terminal fragment, amino acids 757-997; also called C-terminal fragment of Atg9 (amino acids 757–997); recombinant Atg9 C-terminal fragment; source: E. coli, immobilized on beads
B2: GST-Atg9^757–997 4A mutant (domain or fragment, S. cerevisiae, UniProt Q12142 757-997, looked up)
chain: B1 chain with S46A, S75A, S192A, S213A
notes: Atg9, S. cerevisiae, C-terminal fragment, amino acids 757-997, 4A mutant; source: E. coli, immobilized on beads

Biological target: T1, soluble Atg1 (Atg1 complex purified …)
Assay: pull-down; GST fusion proteins from E. coli immobilized on beads, incubated with soluble Atg1; bound protein by anti-Atg1 western blotting
Details: both partners purified

Binder | binding result
B1 | binds
B2 | binds
